Source: patent JP2012115243A (dated 2012)
One block for each binder: values may come before it.

Assays:
[1] = biological target: T1, 抗MT1−MMP抗体MMPK9I (ハイブリドーマ19Bが産生する抗体IgG); test: flow immunoassay: free hinge peptide (0.0-100 ng/mL) inhibits binding of Cy5-F(ab')2-labelled IgG MMPK9I to conjugate-coated polystyrene beads
T1 construct: Mouse IgG from hybridoma 19B; Culture supernatant in the screening; in the flow immunoassay in complex with Cy5-labelled goat anti-mouse IgG F(ab')2; also called 抗体K9I

MT1−MMPヒンジ領域ペプチドコンジュゲート = biological target: T2, MT1−MMPヒンジ領域ペプチドコンジュゲート (mouse, UniProt P02769 25-607 (bovine entry), C-terminal Cys coupled through the linker Sulfo-EMCS to the carrier protein); test: SPR, peptide 3-BSA complex immobilised, scFv as analyte
T2 construct: peptide 3); also called ペプチド−BSA複合体; 固相化抗原
T2 sequence (P02769 25-607 limits assumed): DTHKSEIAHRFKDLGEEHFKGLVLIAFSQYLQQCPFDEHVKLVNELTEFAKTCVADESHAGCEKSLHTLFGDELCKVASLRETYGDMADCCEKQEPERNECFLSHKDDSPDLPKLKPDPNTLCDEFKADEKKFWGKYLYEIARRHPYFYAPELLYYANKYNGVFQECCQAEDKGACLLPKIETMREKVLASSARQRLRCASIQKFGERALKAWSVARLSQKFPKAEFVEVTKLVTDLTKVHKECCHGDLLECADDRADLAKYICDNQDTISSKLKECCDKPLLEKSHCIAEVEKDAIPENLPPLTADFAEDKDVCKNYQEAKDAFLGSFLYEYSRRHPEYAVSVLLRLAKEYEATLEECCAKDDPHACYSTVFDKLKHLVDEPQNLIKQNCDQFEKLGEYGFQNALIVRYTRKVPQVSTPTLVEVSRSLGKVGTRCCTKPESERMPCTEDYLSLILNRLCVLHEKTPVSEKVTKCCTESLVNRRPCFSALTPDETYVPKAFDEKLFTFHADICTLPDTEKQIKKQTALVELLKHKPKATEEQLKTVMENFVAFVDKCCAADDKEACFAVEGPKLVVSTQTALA

- IC50 [1]: ~4.74 ng/mL
Binder: PQPRTTSRPSVPDKPKNC (also called MT1−MMPペプチド; 抗原ペプチド) [MT1−MMPヒンジ領域ペプチド]

- Kd (MT1−MMPヒンジ領域ペプチドコンジュゲート): ~10 nM
B2: 単鎖抗体MMPK9I−1 (scFv, V domains shown)
VH: QVQLQQSGAELVRPGASVTLSCKASGYRFTDYEMHWVRQTPVHGLEWIGAIDPETGGTAYNQKFKGKATLTEDKSSSTAYMELRSLTSEDSAVYYCTTMITTALDYWGQGTSVTVSS
VL: DVLMTQTPLSLPVSLGDQASISCRSSQSIVHSDGNTYLEWYLQKPGQSPKVLIYKVSNRFSGVPDRFSGSGSGTDFTLKITRVEAEDLGVYYCFQGSHVPYTFGGGTKLEIKR

Further lines, the binder ahead of its results:

B1: 単鎖抗体MMP98−1 (scFv, V domains shown)
VH: EVQLQQSGPELKKPGETVKISCKASGYPVTKYGMNWVKQAPGKGLKWMGWINTYTGEPTYTDDFKGRFAFSLETSANTAYLQINNLKDEDTATYFCANSHGKYVEWFTYWGQGTTVTVSS
VL: DIELTQSPTTMAASPGEKITITCSASSSISSNYLHWYQQKPGFSPKLLIYRTSNLASGVPARFSGSGSGTSYSLTIGTMEAEDVATYYCQQGSSIPLTFGAGTKLELKR
- Kd (MT1−MMPヒンジ領域ペプチドコンジュゲート): ~10 nM

B3: 単鎖抗体MMPK9E−1 (scFv, V domains shown)
VH: QIQLVQSGPELKKPGETVKISCKASGYTFTSYALHWVKQAPGKGLKWMGWKYTNTGEPTYGDDFKGRFAFSLETSASTAYLQINNLKNEDMATYFCARGGLSSYAMDYWGQGTSVTVSS
VL: DIVMSQSPSSLAVSAGEKVTMSCKSSQSLLNSRTRKNYLAWYQQKPGQSPKLLIYWASTRESGVPDRFTGTGSGTDFTLTISSVQAEDLAVYYCKQSYNLLVTFGAGTKLELKR
- Kd (MT1−MMPヒンジ領域ペプチドコンジュゲート): ~10 nM
